Where two headings read alike, the source gives them in different places.
Assays:
[1] = molecular target: TNF-α (Homo sapiens) (UniProt P01375); details: cited from earlier work
[2] = molecular target: TGF-β2 (Homo sapiens) (UniProt P61812); details: cited from earlier work
[3] = molecular target: TGF-β1 (Homo sapiens) (UniProt P01137); details: cited from earlier work
[4] = molecular target: TNF-α (Homo sapiens) (UniProt P01375); details: cited from earlier work; remark: listed apart in the source
[5] = molecular target: TGF-β2 (Homo sapiens) (UniProt P61812); details: cited from earlier work; remark: listed apart in the source
[6] = molecular target: TGF-β1 (Homo sapiens) (UniProt P01137); details: cited from earlier work; remark: listed apart in the source
[7] = molecular target: lipoprotein receptors (on SH-SY5Y cells) (human (endogenous in SH-SY5Y)); assay: flow cytometry on cells; SH-SY5Y cells detached with EDTA, in Hank's binding buffer, steps of 30 min at 4°C: RAP (8 μM) or buffer alone, then α2M (100 nM), rabbit anti-α2M, anti-rabbit IgG-FITC; viable cells gated by propidium iodide; α2M preparations stored at 4°C or -20°C for 10 days

glutathione-S-transferase-RAP (receptor-associated protein), sequence (P30533 35-357): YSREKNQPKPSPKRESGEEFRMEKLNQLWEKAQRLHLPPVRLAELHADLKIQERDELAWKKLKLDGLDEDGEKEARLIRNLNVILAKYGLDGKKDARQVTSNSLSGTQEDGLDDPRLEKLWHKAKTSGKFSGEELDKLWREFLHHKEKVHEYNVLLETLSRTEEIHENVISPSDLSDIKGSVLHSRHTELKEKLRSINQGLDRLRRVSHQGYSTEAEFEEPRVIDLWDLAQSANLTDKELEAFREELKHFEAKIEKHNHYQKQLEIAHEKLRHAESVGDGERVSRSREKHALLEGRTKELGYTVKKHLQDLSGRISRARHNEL
alpha-2-macroglobulin (native), sequence (P01023 24-1474): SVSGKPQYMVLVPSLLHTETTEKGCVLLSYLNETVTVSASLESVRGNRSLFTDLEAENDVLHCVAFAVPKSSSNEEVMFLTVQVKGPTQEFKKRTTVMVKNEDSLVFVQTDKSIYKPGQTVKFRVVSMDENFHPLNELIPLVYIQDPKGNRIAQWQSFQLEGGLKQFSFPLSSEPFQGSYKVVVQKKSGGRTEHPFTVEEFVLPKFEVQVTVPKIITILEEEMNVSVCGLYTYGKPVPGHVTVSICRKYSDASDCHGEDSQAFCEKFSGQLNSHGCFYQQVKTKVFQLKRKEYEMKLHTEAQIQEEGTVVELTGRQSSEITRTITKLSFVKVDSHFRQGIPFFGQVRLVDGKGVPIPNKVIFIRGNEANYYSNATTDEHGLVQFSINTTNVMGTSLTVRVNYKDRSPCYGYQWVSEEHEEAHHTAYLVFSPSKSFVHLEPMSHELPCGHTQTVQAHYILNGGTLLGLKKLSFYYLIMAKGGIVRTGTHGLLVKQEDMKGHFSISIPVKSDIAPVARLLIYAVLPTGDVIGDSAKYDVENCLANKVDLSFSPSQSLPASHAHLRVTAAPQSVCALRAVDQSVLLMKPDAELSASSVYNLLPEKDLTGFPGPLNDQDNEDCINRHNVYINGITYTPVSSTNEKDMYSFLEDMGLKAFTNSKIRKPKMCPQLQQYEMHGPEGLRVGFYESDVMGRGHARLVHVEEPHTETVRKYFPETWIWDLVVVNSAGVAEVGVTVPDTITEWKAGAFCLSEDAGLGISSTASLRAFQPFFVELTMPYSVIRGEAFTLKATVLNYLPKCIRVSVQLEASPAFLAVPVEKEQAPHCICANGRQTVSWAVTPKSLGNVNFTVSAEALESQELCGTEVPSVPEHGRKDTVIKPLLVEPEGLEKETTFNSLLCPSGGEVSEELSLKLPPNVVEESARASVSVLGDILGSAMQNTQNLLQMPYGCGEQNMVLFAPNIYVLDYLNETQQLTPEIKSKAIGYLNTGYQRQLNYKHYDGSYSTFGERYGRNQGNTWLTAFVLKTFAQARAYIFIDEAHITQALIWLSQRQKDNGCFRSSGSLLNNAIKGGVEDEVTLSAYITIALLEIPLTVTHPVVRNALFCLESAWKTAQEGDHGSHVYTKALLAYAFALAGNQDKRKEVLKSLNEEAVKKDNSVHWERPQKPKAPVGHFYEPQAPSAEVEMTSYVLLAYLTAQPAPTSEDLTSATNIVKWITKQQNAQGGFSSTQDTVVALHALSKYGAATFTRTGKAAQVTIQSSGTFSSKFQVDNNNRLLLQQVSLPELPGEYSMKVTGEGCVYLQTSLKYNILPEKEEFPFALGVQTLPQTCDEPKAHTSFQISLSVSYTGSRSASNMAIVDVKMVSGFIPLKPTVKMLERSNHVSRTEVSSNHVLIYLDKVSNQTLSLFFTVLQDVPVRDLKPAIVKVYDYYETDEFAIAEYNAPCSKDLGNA
alpha-2-macroglobulin (transformed, α2M*), sequence (P01023 24-1474): as above
TGF-β2 (Homo sapiens), sequence (P61812 303-414): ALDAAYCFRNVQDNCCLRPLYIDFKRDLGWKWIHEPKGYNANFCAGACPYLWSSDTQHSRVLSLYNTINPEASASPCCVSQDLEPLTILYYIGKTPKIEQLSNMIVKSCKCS
TNF-α (Homo sapiens), sequence (P01375 77-233): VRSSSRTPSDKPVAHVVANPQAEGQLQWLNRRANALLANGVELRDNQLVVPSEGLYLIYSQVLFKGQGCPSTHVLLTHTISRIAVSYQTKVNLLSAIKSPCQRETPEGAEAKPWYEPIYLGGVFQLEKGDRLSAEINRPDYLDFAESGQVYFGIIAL
TGF-β1 (Homo sapiens), sequence (P01137 279-390): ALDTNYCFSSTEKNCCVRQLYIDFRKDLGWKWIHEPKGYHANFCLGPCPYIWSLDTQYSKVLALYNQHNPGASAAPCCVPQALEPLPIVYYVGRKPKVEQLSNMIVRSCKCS

alpha-2-macroglobulin (native) (from UniProt P01023)
Kd [1]: > 1270 nM | Kd [2]: 11 nM | Kd [3]: 330 nM

alpha-2-macroglobulin (transformed, α2M*) (from UniProt P01023)
Kd [4]: > 750 nM | Kd [5]: 13 nM | Kd [6]: 80 nM

glutathione-S-transferase-RAP (receptor-associated protein) (from UniProt P30533 35-357) (natural protein)
percent of the cell surface binding of the frozen α2M preparations inhibited by RAP [7]: 20 to 50% | percent of the cell surface binding of α2M inhibited by RAP (α2M in PBS/Az at -20°C; α2M in phosphate buffer with 100 mM NaCl at -20°C after rapid freezing) [7]: 20%
